{
  "source": "paper PMC11063404",
  "about": "“Classical and novel properties of Holliday junction resolvase SynRuvC from Synechocystis sp. PCC6803”",
  "target": "T1, SynRuvC E75A (Synechocystis sp. PCC6803, UniProt Q55506 1-167, E75A)",
  "T1 sequence": "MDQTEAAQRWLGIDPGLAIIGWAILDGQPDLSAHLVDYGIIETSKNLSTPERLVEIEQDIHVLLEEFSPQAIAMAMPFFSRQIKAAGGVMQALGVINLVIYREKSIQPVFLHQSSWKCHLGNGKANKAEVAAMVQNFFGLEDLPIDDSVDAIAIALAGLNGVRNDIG",
  "assay": "EMSA; EMSA: 50 nM 5'-FAM DNA, 0-2000 nM protein, 20 mM HEPES pH 7.5, 50 mM NaCl, 1 mM DTT, 10% DMSO, 1% glycerol, no metal listed, 37 C 60 min; 5% native PAGE in 1x TAE",
  "conditions": "protein: recombinant; tags: His-SUMO N-terminal, removed (purified as WT); chain copies: 2; label: 5'-FAM on one strand; four-way junction, 13 bp homologous core",
  "data": [
    {"binder": "4Jh (structured_DNA) DNA 1: GCAATTCGATCGTTGACATCTCGCGTGCTCGGTCAATCGGCAGATGCGGAGTGAAGTTCCAACGTTCGGC DNA 2: CCTGCAGGATGGTAGGACGGCCTCGCAATCCCGATTGACCGAGCACGCGAGATGTCAACGATCGAATTGC DNA 3: GCCGAACGTTGGAACTTCACTCCGCATCTGCCGATTGACCGAGTGGCGTGTTTCTGGTGGTTCCTAGGTC DNA 4: GACCTAGGAACCACCAGAAACACGCCACTCGGTCAATCGGGATTGCGAGGCCGTCCTACCATCCTGCAGG", "values": [
      {"measurement": "binding result", "value": "no binding"}
    ]}
  ]
}
